The source of these data is a protein production outcome set (Wang et al. 2014).

The nature of the data set: label from the status in PepcDB records.
With “MGSRDLISSLPDEILGKVLSLLPTKRAASTAVLSKRWNNLPALVDKLDINDAIGGPGGFPEFIDKTLALLTNSTTIKRTSLNNEFQYGESQVNTWIRSFLERGCLQLYLNAQSLYTIDTEFFTSNTLVELTITGGFSPDGLLPPGGVFFPKLKTLSLVLMTFVDSDMYELFISGCPLLEEFLLRNDEIEIPPVWNALVSSPSIKRLTIVHHFPNYREAHDGCWFRTPNLVYLDYSSYVPDWYEVDLGSLVEARLDLRSWERLRDEKAGGYGDCDSVYDDEEYPDDPILGDVTNLVTGLSNIKTLHLSPDSLEVFYFCCKSMPVFHNLLTLSFESAKKEAGQCCHFSSISLLT”, the protein production entry is listed as “failed”.
“MGHHHHHHSHMQPAKEVTKASDGSLLGDLGHTPLSKKEGIKWQRPRLSRQALMRCCLVKWILSSTAPQGSDSSDSELELSTVRHQPEGLDQLQAQTKFTKKELQSLYRGFKNECPTGLVDEDTFKLIYAQFFPQGDATTYAHFLFNAFDADGNGAIHFEDFVVGLSILLRGTVHEKLKWAFNLYDINKDGYITKEEMLAIMKSIYDMMGRHTYPILREDAPAEHVERFFEKMDRNQDGVVTIEEFLEACQKDENIMSSMQLFENVI”: the protein production result was “failed”.
As to “MKKISILFIFSLILGLFVSEVSAAGPRLKKRPKHVVLVAFDGLSAVAIRNHPMPNFNRLMKEGASTLNNRSILPSSSAPNWASMFTGVGPELHGYTTWGSKTPEIPPFITNQYGRFPGLYGLLRDTHPKAELGYIYEWDGMKYLVDSLAINHFVHAPQTKDHPKGATQFAVNYLKEKKPMYCAVIFEYPDHTGHTYKWESKEYYEKLDELDGYLGEIVAAIEEAGMMDETVIILTADHGGIGTNHGGKTLNEMETPLVFYGKGVKKNYKITESTMVIDVPATEAWLLGVEPHEAWLGNPVTTAFFTK”, the protein production entry is reported as “failed”.
The value for “FEELLNALHDGVYITDGQGQTLKVNQAYERLTGLNGAELLGRPMQELVKSGVISQSASLRVLQDGRPVSVMQSLSHGKKLLVSATPILAADQSIRYVVSTVRDMTELLRIKRERDELQQL” was “failed”; that for “MKSKFLTMKLILGALVLSFSCACSSSNSEEAMPQTAIGRQLVESGMANDVTLDNESVVRDGIKLNELAFKTFGESQHIFVATIDLNELTFTPATKDDKNVPATGPESSAPLPIHAFAAEANGKTVWLGVNGDYYADNPRRVMGLFYKDGVCINSQYFEGHDEVLYQLKNGETYVGQADEALAHEANLLHALGGYGLLVKDGVVQNFYEEMGDLQNTHPRTSVGLSQDRKTMYVFVVDGRRKDSFFALGLTLPHLATMMKAVGCYNAINLDGGGSTTLIIRKVNDGGKPTFPILNTPADDRVPRKVTNSMLIIEKK” was “failed”.
The value for “MPTVKKLTKQVVDGLPTPATGQAFHWCSVTPGFAVRVTASGAKSYIVQGRVNSKTCRYTIGPCELLGTDEARKRALARLLEMHDGMNPQVERKRRQAQGVTLREVMEDYVENKRTKHGTLRDSSQADIKRCVTQHLADWADKPVASITREACVKRFRELSATAPTTANQVFRNLRALCNWARETNVAPDGSYPILPINPVVQAFKSVTWNKEVTREEFVPLAKVGAVWNMLAERSNAQIYTTADVTAAHLVMFLILTGARIGEGSALHWKDVRLDDEVPSFTFTQTKNHNEVTIPLSTQLHALLAARYSARRPDEEYVFPSRTGTREPHMQDARGTMQRVSKIAGLHLHNHDLRRTFLAIAIECGVEMWKAEILTNHLPQTVTLKHYTQTRDLRYLQADTQRVADWITKQAQVASGQNVVALRA” was “failed”.
With “TTHKFEHPLNEKTRIYLRVESLLRQAHLASGFADNHQYQLFFRALFDMVEIFEQIQLKSELAKDLEKQRLSYRHWLNVEGVDQEALNSLLNEIDVVHSQLMGAERFGQALKEDRFLSSIRQRFNLPGGSCCFDLPALHYWLHLPIERKKHDANQWQKSLKPLSDALTLWLKLARETGHFKAQIARAGFFQSDADEANILRLHIPMKYGVYPMISGHKNRFAIKFMAFENGQACSQDVEFELAVC”, the protein production result is reported as “not failed”.
With “MPALDLIRPSVTAMRVIASVNAEFARELKLPPHIRSLGLISADSDDVTYIAADEATKQAMVEVVYGRSLYAGAAHGPSPTAGEVLIMLGGPNPAEVRAGLDAMVANIENGAAFQWANDAENTAFLAHVVSRTGSYLSSTAGITLGDPMAYLVAPPLEATYGIDAALKSADVQLVTYVPPPSETNYSAAFLTGSQAACKAACNAFTDAVLEIARNPIQRA”, the protein production entry is recorded as “not failed”.
